Consider one substance from PMC8371691.

The experiment addresses N-terminal(Lon)-LotP.His ('Candidatus Liberibacter asiaticus'). Kind of experiment: SEC.

Broadly, the stoichiometry N is the number of molecules, sites or subunits per partner or assembly.

For the substance N-terminal(Lon)-LotP.His, the stoichiometry N turned out to be 2.
